{"source": "patent US20210015937A1", "about": "(CRESCENDO BIOLOGICS, published 2021)", "key": {"[1]": {"biological_target": "CTLA4 (Homo sapiens (Human), UniProt P16410 36-161)", "sequence (P16410 36-161 limits assumed)": "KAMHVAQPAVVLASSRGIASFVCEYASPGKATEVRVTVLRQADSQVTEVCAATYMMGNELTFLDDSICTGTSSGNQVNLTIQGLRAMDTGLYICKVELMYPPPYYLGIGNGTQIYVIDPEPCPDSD", "assay": "BLI (Octet)"}, "[2]": {"biological_target": "CD28 (Homo sapiens (Human), UniProt P10747 19-152)", "assay": "BLI (Octet)"}, "[3]": {"biological_target": "T1, CD4 (UniProt P01730 26-390)", "T1 construct": "also called CD4 (R&D Biotechne 514-CD)", "assay": "BLI (Octet)"}, "[4]": {"biological_target": "T2, recombinant human PD-1 Fc chimera (human, UniProt Q15116 25-167)", "T2 construct": "Bought Fc chimera; also called human PD-1 (R&D systems cat no. 1086-PD); PD1 antigen", "T2 sequence (Q15116 25-167 limits assumed, change not shown)": "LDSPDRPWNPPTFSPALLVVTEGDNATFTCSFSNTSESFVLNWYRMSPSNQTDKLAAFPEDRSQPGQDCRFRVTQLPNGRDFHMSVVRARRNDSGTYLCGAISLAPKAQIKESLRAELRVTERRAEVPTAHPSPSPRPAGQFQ", "assay": "switchSENSE; LAG3 and PD1 both on the surface, PD1 channel (avidity)", "procedure": "(§1) The antigens were covalently attached to the biosensor surface using amine-coupling method, each antigen was linked to a different nanolever, with red or green fluorescent tag. Binding of a bispecific construct was measured to individual antigens alone or where both antigens were present on the surface simultaneously."}, "[5]": {"biological_target": "T3, human PD-1 expressed on cells (human, UniProt Q15116 25-288)", "T3 sequence (Q15116 25-288 limits assumed)": "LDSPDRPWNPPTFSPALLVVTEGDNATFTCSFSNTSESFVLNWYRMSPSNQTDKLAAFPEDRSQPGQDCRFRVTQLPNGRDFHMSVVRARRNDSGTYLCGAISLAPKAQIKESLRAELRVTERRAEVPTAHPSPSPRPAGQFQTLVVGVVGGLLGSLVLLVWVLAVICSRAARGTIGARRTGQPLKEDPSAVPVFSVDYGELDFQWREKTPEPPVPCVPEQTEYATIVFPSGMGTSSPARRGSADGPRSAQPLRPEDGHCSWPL", "assay": "cell-based or functional assay"}, "[6]": {"biological_target": "human LAG-3 and human PD-1 co-expressed on the surface of cells (DiscoverX cell line) (human)", "sequence (Q15116 25-288)": "as the sequence (Q15116 25-288 limits assumed) above", "assay": "cell-based or functional assay"}, "[7]": {"biological_target": "T4, recombinant human LAG-3-Fc (human, UniProt P18627 23-450)", "T4 construct": "also called human LAG-3 (R&D Systems cat no. 2319-L3); LAG3 antigen", "T4 sequence": "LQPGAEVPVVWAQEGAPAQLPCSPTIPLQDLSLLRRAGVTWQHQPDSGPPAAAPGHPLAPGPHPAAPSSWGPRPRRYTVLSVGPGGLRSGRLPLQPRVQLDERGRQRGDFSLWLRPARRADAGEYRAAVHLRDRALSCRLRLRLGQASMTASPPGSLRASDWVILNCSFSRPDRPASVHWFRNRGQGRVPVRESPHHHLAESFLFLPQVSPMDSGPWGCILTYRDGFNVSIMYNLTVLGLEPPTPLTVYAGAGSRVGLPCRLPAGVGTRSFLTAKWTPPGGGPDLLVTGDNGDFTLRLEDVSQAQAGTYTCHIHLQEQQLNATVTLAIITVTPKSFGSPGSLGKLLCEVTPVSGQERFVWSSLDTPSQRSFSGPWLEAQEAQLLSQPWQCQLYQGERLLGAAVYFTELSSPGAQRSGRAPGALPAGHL", "assay": "switchSENSE; LAG3 and PD1 both on the surface, LAG3 channel (avidity)", "procedure": "as §1"}, "[8]": {"biological_target": "Cynomolgus PD1 (cynomolgus, UniProt B0LAJ3 25-170)", "sequence (B0LAJ3 entry or part of it limits assumed)": "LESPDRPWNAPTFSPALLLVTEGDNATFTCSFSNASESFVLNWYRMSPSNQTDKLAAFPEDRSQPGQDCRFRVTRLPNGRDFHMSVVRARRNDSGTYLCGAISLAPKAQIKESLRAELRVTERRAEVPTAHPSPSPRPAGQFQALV", "assay": "BLI (Octet); PD1 antigen captured on Protein G sensors"}, "[9]": {"biological_target": "T2, recombinant human PD-1 Fc chimera", "assay": "BLI (Octet); PD1 antigen captured on Protein G sensors"}, "[10]": {"biological_target": "T2, recombinant human PD-1 Fc chimera", "assay": "switchSENSE (Dynamic Biosensors); PD1 alone on the surface, PD1 channel", "procedure": "as §1"}, "[11]": {"biological_target": "T5, Rhesus monkey LAG-3 (used as cynomolgus LAG-3) (Rhesus monkey (called cynomolgus in the …))", "T5 construct": "extracellular domain", "assay": "BLI (Octet); LAG3 antigen amine-coupled to ARG2 sensors"}, "[12]": {"biological_target": "T4, recombinant human LAG-3-Fc", "assay": "BLI (Octet); LAG3 antigen amine-coupled to ARG2 sensors"}, "[13]": {"biological_target": "T4, recombinant human LAG-3-Fc", "assay": "switchSENSE; LAG3 and PD1 both on the surface, LAG3 channel (avidity); LAG3 and PD1 as ligand antigens, LAG3 detection channel", "procedure": "as §1"}, "[14]": {"biological_target": "T3, human PD-1 expressed on cells", "assay": "cell-based or functional assay", "remark": "listed apart in the source"}, "[15]": {"biological_target": "T6, human LAG-3 expressed on cells (human, UniProt P18627 23-525)", "T6 sequence": "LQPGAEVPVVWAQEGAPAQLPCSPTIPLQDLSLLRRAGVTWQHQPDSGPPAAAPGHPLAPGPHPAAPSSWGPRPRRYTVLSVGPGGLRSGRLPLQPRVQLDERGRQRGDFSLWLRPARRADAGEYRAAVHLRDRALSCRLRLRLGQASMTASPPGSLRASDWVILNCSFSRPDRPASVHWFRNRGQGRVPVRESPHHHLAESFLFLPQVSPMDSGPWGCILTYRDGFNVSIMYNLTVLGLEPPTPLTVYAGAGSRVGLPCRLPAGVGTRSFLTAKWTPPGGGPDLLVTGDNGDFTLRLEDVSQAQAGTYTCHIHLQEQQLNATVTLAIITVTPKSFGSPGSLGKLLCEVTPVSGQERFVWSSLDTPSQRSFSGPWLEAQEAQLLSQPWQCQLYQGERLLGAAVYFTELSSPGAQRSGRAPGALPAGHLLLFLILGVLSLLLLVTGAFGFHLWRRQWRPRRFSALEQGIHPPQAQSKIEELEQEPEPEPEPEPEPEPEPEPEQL", "assay": "cell-based or functional assay"}, "[16]": {"biological_target": "T4, recombinant human LAG-3-Fc", "assay": "switchSENSE (Dynamic Biosensors); LAG3 alone on the surface, LAG3 channel", "procedure": "as §1"}}, "note": "“And” between values parts separate entries of the source, which are not always exact repeats. Equal values may be shown once.", "data": [{"binder": "VH1.2-6GS-VH1.2-6GS-VH2.92-His6 (bispecific antibody, 259 is the same construct without the tag; also called 1.2-6GS-1.2-6GS-2.92; the bispecific) EVQLVESGGGVVRPGGSLRLSCAASGFTFDDYGMSWVRQAPGKGLEWVSGIHWNGGSTGYADSVKGRFTISRDNAKNSLYLQMNSLRAEDTALYYCARIPREDCSSASCYTDAIDFWGQGTMVTVSSGGGGSGGGGSGGGGSGGGGSGGGGSGGGGSEVQLVESGGGVVRPGGSLRLSCAASGFTFDDYGMSWVRQAPGKGLEWVSGIHWNGGSTGYADSVKGRFTISRDNAKNSLYLQMNSLRAEDTALYYCARIPREDCSSASCYTDAIDFWGQGTMVTVSSGGGGSGGGGSGGGGSGGGGSGGGGSGGGGSEVQLVESGGGLVKPGGSLRLSCAASGFTFSDESMTWMRQAPGKGLEWVSYISSGGGVKFYADSVKGRFTISRDNAKNSLYLQMNSLRAEDTAVYYCAREAPLRLGESPHDAFDISGQGTMVTVSSAAAHHHHHH", "values": [{"measurement": "binding result", "setting": "[1]", "value": "no binding"}, {"measurement": "binding result", "setting": "[2]", "value": "no binding"}, {"measurement": "binding result", "setting": "[3]", "value": "no binding"}, {"measurement": "Kd", "setting": "[4]", "value": 0.041, "unit": "nM"}, {"measurement": "koff", "setting": "[4]", "value": "8.67e-05", "unit": "s⁻¹"}, {"measurement": "kon", "setting": "[4]", "value": "2.12e+06", "unit": "M⁻¹ s⁻¹"}, {"measurement": "potency in the PD-1:PD-L1 NFAT-luciferase reporter assay, fold lower than monoclonal antibodies", "setting": "[5]", "value": "> 30", "unit": "fold"}, {"measurement": "EC50 (M) (n = 2), enzyme fragment complementation on LAG-3/PD-1 cells", "setting": "[6]", "value": "5.5e-11 M and 7.6e-11 M"}, {"measurement": "Kd", "setting": "[7]", "value": 0.0207, "unit": "nM"}, {"measurement": "Kd", "setting": "[8]", "value": 4.36, "unit": "nM"}, {"measurement": "koff", "setting": "[8]", "value": 0.000685, "unit": "s⁻¹"}, {"measurement": "kon", "setting": "[8]", "value": 157000, "unit": "M⁻¹ s⁻¹"}, {"measurement": "Kd", "setting": "[9]", "value": 2.94, "unit": "nM"}, {"measurement": "koff", "setting": "[9]", "value": 0.000665, "unit": "s⁻¹"}, {"measurement": "kon", "setting": "[9]", "value": 226000, "unit": "M⁻¹ s⁻¹"}, {"measurement": "Kd", "setting": "[10]", "value": 4.4, "unit": "nM"}, {"measurement": "koff", "setting": "[10]", "value": 0.000488, "unit": "s⁻¹"}, {"measurement": "kon", "setting": "[10]", "value": 110000, "unit": "M⁻¹ s⁻¹"}, {"measurement": "Kd", "setting": "[11]", "value": 1.32, "unit": "nM"}, {"measurement": "koff", "setting": "[11]", "value": 0.000184, "unit": "s⁻¹"}, {"measurement": "kon", "setting": "[11]", "value": 140000, "unit": "M⁻¹ s⁻¹"}, {"measurement": "Kd", "setting": "[12]", "value": 1.42, "unit": "nM"}, {"measurement": "koff", "setting": "[12]", "value": 0.000206, "unit": "s⁻¹"}, {"measurement": "kon", "setting": "[12]", "value": 145000, "unit": "M⁻¹ s⁻¹"}, {"measurement": "koff", "setting": "[13]", "value": "7.51e-05", "unit": "s⁻¹"}, {"measurement": "kon", "setting": "[13]", "value": "3.62e+06", "unit": "M⁻¹ s⁻¹"}, {"measurement": "EC50 (M), NFAT-Luciferase Reporter Gene assay (PD-1:PD-L1)", "setting": "[14]", "value": "4.6e-08", "unit": "M"}, {"measurement": "EC50 (M), NFAT-Luciferase Reporter Gene assay (LAG-3:MHCII)", "setting": "[15]", "value": "5.9e-09", "unit": "M"}, {"measurement": "Kd", "setting": "[16]", "value": 1.4, "unit": "nM"}, {"measurement": "koff", "setting": "[16]", "value": 0.000674, "unit": "s⁻¹"}, {"measurement": "kon", "setting": "[16]", "value": 483000, "unit": "M⁻¹ s⁻¹"}]}]}
